Assay results reported in patent US20030144191.

B1: TRP-PLIK2-GST fusion protein (TRP-PLIK2 kinase domain fused to GST) (protein)
chain: PMTMSSPLSQAKIMQTGGGYVNWAFSEGDETGVFSIKKKWQTCLPSTCDSDSSRSEQHQKQAQDSSLSDNSTRSAQSSECSEVGPWLQPNTSFWINPLRRYRPFARSHSFRFHKEEKLMKICKIKNLSGSSEIGQGAWVKAKMLTKDRRLSKKKKNTQGLQVPIITVNACSQSDQLNPEPGENSISEEEYSKNWFTVSKFSHTGVEPYIHQKMKTKEIGQCAIQISDYLKQSQEDLSKNSLWNSRSTNLNRNSLLKSSIGVDKISASLKSPQEPHHHYSAIERNNLMRLSQTIPFTPVQLFAGEEITVYRLEESSPLNLDKSMSSWSQRGRAAMIQVLSREEMDGGLRKAMRVVSTWSEDDILKPGQVFIVKSFLPEVVRTWHKIFQESTVLHLCLREIQQQRAAQKLIYTFNQVKPQTIPYTPRFLEVFLIYCHSANQWLTIEKYMTGEFRKYNNNNGDEITPTNTLEELMLAFSHWTYEYTRGELLVLDLQGVGENLTDPSVIKPEVKQSRGMVFGPANLGEDAIRNFIAKHHCNSCCRKLKLPDLKRNDYSPERINSTFGLEIKIESAEEPPARETGRNSPEDDMQL
- 32P incorporation (kinase assay, SDS-PAGE, autoradiography) (Histon): MBP was determined to be a preferred substrate over Histon.
- 32P incorporation (kinase assay, SDS-PAGE, autoradiography) (MBP): MBP was determined to be a preferred substrate over Histon.
- incorporated 32P in the substrate (kinase assay, SDS-PAGE, autoradiography) (MBP): predicted TRP-PLIK2 kinase domain was determined to have kinase activity as demonstrated by the phosphorylated MBP protein
